Experimental data from publication PMC7999107.

What was measured:
Conditions in all cases: reference: wild type mice; sites S89
14-3-3 epsilon (14-3-3ε) [1] = target: 14-3-3 epsilon (14-3-3ε) (UniProt P62259); assay: anti-14-3-3ε IP, p300 immunoblot
14-3-3 epsilon (14-3-3ε) [2] = target: 14-3-3 epsilon (14-3-3ε) (UniProt P62259); assay: anti-p300 IP, 14-3-3ε immunoblot
β-catenin = β-catenin (UniProt Q02248); assay: anti-p300 IP, β-catenin immunoblot, nuclear extract

Measured: binding against the reference

p300 (from UniProt B2RWS6) p300 S89A knock-in mice
weaker: all assays above
